Experimental data reported in patent publication US20050163769A1 (AbbVie / Abbott, published 2005).

B1: IIA1, mouse anti-human α5β1 integrin antibody (antibody, V domains shown)
VH: QVQLKESGPGLVAPSQSLSITCTISGFSLTDYGVHWVRQPPGKGLEWLVVIWSDGSSTYNSALKSRMTIRKDNSKSQVFLIMNSLQTDDSAMYYCARHGTYYGMTTTGDALDYWGQGTSVTVSS
VL: QIVLTQSPAIMSASLGERVTMTCTASSSVSSNYLHWYQQKPGSAPNLWIYSTSNLASGVPARFSGSGSGTSYSLTISSMEAEDAATYYCHQYLRSPPTFGGGTKLEIKR
notes: Mouse monoclonal antibody (Pharmingen); also called murine IIA1; M100
B2: M200 chimeric anti-α5β1 integrin antibody (antibody, human IgG4, kappa, V domains shown)
VH: B1 VH
VL: B1 VL
notes: Mouse/human chimeric IgG4/kappa; also called 200-M; 200-4 EOS
B3: HuM200, humanized M200 with IgG4 constant region (antibody, V domains shown)
VH: EVQLVESGGGLVQPGGSLRLSCAASGFSLTDYGVHWVRQAPGKGLEWLVVIWSDGSSTYNSALKSRMTISKDNAKNTVYLQMNSLRAEDTAVYYCARHGTYYGMTTTGDALDYWGQGTLVTVSS
VL: EIVLTQSPATLSLSPGERATLSCTASSSVSSNYLHWYQQKPGQAPRLLIYSTSNLASGVPARFSGSGSGTSYTLTISSLEPEDFAVYYCHQYLRSPPTFGGGTKVEIKR
notes: Humanized IgG4; also called HuM200-G4; huM200-G4
B4: HuM200-g2 m3G, humanized M200 with IgG2 constant region (antibody, V domains shown)
VH: B3 VH
VL: EIVLTQSPATLSLSPGERATLSCTASSSVSSNYLHWYQQKPGQAPRLLIYSTSNLASGVPARFSGSGSGTSYTLTISSLEPEDFAVYYCHQYLRSPPTFGGGTKVEIK
notes: Same variable domains as HuM200 with a constant region of IgG2
B5: F200, Fab fragment of M200 (Fab, V domains shown)
VH: B1 VH
VL: B1 VL
notes: Made by papain digestion of M200 IgG

Columns and labels:
[1] = biological target: T1, recombinant soluble recombinant human α5β1 integrin-Fc fusion protein (human, UniProt P08648 42-995; P05556 21-728, limits assumed); assay: competition ELISA on coated α5β1 integrin-Fc; competitor: biotinylated IIA1
T1 construct: Coated on ELISA plates at 1.0 µg/ml; The construct's limits and the Fc are not described; not shown: Fc part
Procedure: (§1) Wells of 96-well ELISA plates (Nunc-Immuno MaxiSorp plate, NalgeNunc, Naperville, Ill.) were coated with 100 μl of 1.0 μg/ml recombinant soluble recombinant human α5β1 integrin-Fc fusion protein in 0.2 M sodium carbonate-bicarbonate buffer (pH 9.4) overnight at 4° C. After washing with Wash Buffer (PBS containing 0.1% Tween 20), wells were blocked with 200 μl of Superblock Blocking Buffer (Pierce) for 30 min and then washed with Wash Buffer. A mixture of biotinylated murine IIA1 (0.1 μg/test) and competitor antibody (duplicates of serial 3-fold dilutions of competitior antibodies starting at 5 mg/ml) in ELISA Buffer (PBS containing 1% BSA and 0.1% Tween 20) was applied to ELISA plates in a final volume of 100 μl per well. ELISA plates were incubated for 1 hr at room temperature and the wells were washed with Wash Buffer. Then, […] of 1/1,000-diluted HRP-conjugated streptavidin (Pierce, Rockford, Ill.) in ELISA Buffer was applied to each well. After incubating for 0.5 hr at room temperature and washing with Wash Buffer, 100 μl of TMB substrate was added to each well. Absorbance was read at 450 nm using a VERSAmax microplate reader (Molecular Devices, Menlo Park, Calif.). Final competitor concentration in the reaction was plotted versus absorbance at 450 nm.

[2] = biological target: T1, recombinant soluble recombinant human …; assay: competition ELISA: plate coated with human α5β1 integrin-Fc, unlabelled antibody titrated against biotinylated murine IIA1, streptavidin-HRP, O.D. 450
Procedure: as §1

[3] = biological target: T2, AAB1/B2Fc; assay: SPR (BIAcore), antibody immobilized by amine coupling, AAB1/B2Fc as analyte, 24° C
T2 construct: Analyte in the BIAcore experiment
Procedure: (§2) Affinities between AAB1/B2Fc and IIA1, M200 or F200 were analyzed using BIAcore 3000 and 2000 (BIAcore, Sweden). IIA1, M200 or F200 was immobilized on the Pioneer F 1 chip using standard amine coupling kit (BIAcore). Surface plasmon resonance was measured at a flow rate of 50 ul/min at 24° C. Injection of AAB1/B2Fc (association phase) occurs over 180 seconds. Dissociation was subsequently monitored over 3 hours. Kinetics of binding were calculated from data acquired at five different concentrations of analyte (320 nM, 160 nM, 80 nM, 40 nM, 20 nM), using the BIAevaluation program. Double-referencing was applied to eliminate responses from reference surface and buffer only control. KD was obtained by simultaneously fitting the association and dissociation phases of the sensorgram from the analyte concentration series.

[4] = biological target: T2, AAB1/B2Fc; assay: SPR (BIAcore), Fab immobilized by amine coupling, AAB1/B2Fc as analyte, 24° C
Procedure: as §2

T1 sequence (P08648 42-995 limits assumed, chain 1 of 2): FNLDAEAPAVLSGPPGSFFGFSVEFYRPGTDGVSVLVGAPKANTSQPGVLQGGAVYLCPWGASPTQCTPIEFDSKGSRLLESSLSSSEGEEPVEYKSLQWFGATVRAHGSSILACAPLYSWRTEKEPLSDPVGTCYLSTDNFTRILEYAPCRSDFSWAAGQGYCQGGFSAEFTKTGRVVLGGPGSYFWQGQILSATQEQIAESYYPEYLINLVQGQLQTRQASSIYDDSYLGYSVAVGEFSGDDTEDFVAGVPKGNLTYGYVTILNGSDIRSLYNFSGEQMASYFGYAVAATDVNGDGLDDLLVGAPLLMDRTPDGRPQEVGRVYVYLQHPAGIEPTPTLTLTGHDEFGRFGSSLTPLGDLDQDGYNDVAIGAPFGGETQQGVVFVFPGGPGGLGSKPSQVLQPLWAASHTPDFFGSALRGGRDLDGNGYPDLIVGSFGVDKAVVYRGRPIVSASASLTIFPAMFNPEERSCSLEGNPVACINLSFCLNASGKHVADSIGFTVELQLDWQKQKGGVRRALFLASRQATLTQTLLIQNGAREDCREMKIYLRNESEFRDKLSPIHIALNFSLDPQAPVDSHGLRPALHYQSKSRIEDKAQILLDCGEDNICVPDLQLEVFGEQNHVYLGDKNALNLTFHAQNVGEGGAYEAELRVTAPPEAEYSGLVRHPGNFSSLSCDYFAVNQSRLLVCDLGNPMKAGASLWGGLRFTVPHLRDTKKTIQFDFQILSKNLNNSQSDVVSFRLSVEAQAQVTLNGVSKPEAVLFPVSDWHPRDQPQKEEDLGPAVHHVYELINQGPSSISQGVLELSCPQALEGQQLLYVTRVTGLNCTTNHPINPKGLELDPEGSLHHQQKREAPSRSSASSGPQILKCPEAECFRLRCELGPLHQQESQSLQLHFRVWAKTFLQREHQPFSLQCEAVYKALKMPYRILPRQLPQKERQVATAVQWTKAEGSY
T1 sequence (P05556 21-728 limits assumed, chain 2 of 2): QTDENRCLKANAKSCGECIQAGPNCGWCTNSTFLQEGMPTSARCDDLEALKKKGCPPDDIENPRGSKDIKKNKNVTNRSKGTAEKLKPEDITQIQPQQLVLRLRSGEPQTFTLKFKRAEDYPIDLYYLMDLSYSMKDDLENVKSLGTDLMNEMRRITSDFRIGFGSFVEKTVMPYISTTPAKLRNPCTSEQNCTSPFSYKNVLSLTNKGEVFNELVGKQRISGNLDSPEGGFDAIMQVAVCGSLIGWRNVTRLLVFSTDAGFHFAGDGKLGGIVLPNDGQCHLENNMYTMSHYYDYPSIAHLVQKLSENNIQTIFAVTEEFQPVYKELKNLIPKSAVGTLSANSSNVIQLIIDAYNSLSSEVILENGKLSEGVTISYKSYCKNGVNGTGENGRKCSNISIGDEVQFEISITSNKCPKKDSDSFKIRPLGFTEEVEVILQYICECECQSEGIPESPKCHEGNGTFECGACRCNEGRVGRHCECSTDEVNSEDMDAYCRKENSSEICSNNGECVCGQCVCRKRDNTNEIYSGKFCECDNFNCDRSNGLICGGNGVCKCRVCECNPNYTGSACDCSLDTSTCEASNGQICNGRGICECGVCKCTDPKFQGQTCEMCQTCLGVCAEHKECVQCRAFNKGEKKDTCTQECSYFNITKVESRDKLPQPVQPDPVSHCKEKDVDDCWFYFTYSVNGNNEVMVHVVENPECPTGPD

| Binder | IC50 [1] [µg/mL] | IC50 (read off the curve) [2] [µg] | Kd [3] [nM] | Kd [4] [nM] |
| --- | --- | --- | --- | --- |
| B1 | 79.1 | ~0.02 |  |  |
| B2 | 106 | ~0.02 | 0.367 |  |
| B3 | 132 | ~0.02 |  |  |
| B4 | 103 | ~0.02 |  |  |
| B5 |  |  |  | 0.332 |
